For one substance, stoichiometry N results are on record in paper PMC3014985.

Several values for one entry are separate records, joined by “and”; a condition that tells them apart may be missing. Equal values may be shown once. Read-outs that look alike come from different tables or passages of the source.

The target in assay [1] is 6His-RVFV NP (Rift Valley fever virus nucleoprotein with N-terminal hexahistidine tag) (Rift Valley fever virus (strain Smithburn)) (UniProt P21700). The assay can be described thus: SEC.
The target is the same in assay [2]. The assay can be described thus: SEC. The source holds these as a separate data set.

In the case of “6His-RVFV NP (Rift Valley fever virus nucleoprotein with N-terminal hexahistidine tag) (from UniProt P21700 1-245) (natural protein)”, the stoichiometry N was 3 and 2 in assay [1]; 4.3 in assay [2].
